The text below walks through data of publication PMC6151752, “Characterization, Function, and Transcriptional Profiling Analysis of 3-Hydroxy-3-methylglutaryl-CoA Synthase Gene (GbHMGS1) towards Stresses and Exogenous Hormone Treatments in Ginkgo biloba” (Molecules : A Journal of Synthetic Chemistry and Natural …, 2017).

Substrate in the data set: CC(=O)CC(=O)SCCNC(=O)CCNC(=O)[C@H](O)C(C)(C)COP(=O)(O)OP(=O)(O)OC[C@H]1O[C@@H](n2cnc3c(N)ncnc32)[C@H](O)[C@@H]1OP(=O)(O)O
Nature of the data set: initial rate versus acetoacetyl-CoA concentration, Michaelis-Menten fit. The data set is classed as biochemical, Ginkgo biloba. To be noted: acetoacetyl-CoA varied 20-100 μM (Km lies far above the range); pH, temperature and acetyl-CoA concentration not given. The source says:
initial rate versus acetoacetyl-CoA concentration, Michaelis-Menten fit on GbHMGS1

B1: GbHMGS1 (Ginkgo biloba) (protein)
chain: MASHPENVGILAMDIYFPSTCVQQDALETFDGVSKGKYTIGLGQDCMAFCMDLEDVISMSLTVVSSLLDKYGIDPKRIGRLEVGSETVIDKSKSIKTWLMQIFEECGNSEIEGVDSTNACYGGTAALLNCVNWVESRSWDGRYGLVVSTDSAVYAEGPARPTGGAAAVAMLIGPNAPIVFESKYRGTHMSHAYDFYKPNLASEYPVVDGKLSQTCYLMGLDSCYKRFCNRFEEGEGRQFSLSDADYVAFHSPYNKLVQKSFARLLFNDFSRHASSVGKDAQEKLEPYAGLSDEDSYSSRELEKVSQQVARPLYDVKVQPSTLLPKQVGNMYTASLYAAFASIIHNEHDTLEGQRVLMFSYGSGLASTMFSLKIREGQHPFTLTNIADVMDVSSKLDSRHVLSPEDFMVNMKLMETLYGAKDFISCSDHNLLRSGTFYLTQVDSMYRRFYAQKVASPDDTHEKVKLANGIIHDQL
As a reminder, the Km is the concentration of substrate that gives half-maximal velocity. For orientation: Vmax means the top rate of the reaction or transport when substrate is in excess. In general, kcat refers to the maximal rate divided by the concentration of active sites. By kcat/Km is commonly meant the second-order rate constant that governs catalysis at low substrate concentration. Turning to B1, the Km was 689 ± 32.6 µM, the Vmax is 0.0371 µM/min, the kcat worked out at 3.26 ± 0.218 s⁻¹ and the kcat/Km came out at 4670 ± 167 M⁻¹ s⁻¹.
